US7056731 (MAYO FOUNDATION FOR MEDICAL EDUCATION AND RESEARCH, dated 2006)
Residue numbers refer to the chain shown, from its start.

B1: wild type SULT2A1 polypeptide (reference human SULT2A1) (enzyme)
chain: MSDDFLWFEGIAFPTMGFRSETLRKVRDEFVIRDEDVIILTYPKSGTNWLAEILCLMHSKGDAKWIQSVPIWERSPWVESEIGYTALSESESPRLFSSHLPIQLFPKSFFSSKAKVIYLMRNPRDVLVSGYFFWKNMKFIKKPKSWEEYFEWFCQGTVLYGSWFDHIHGWMPMREEKNFLLLSYEELKQDTGRTIEKICQFLGKTLEPEELNLILKNSSFQSMKENKMSNYSLLSVDYVVDKAQLLRKGVSGDWKNHFTVAQAEDFDKLFQEKMADLPRELFPWE
notes: Recombinant protein expressed in COS-1 cells from pCR3.1 and used as an unpurified high speed supernatant cytosol preparation; The pair written here is its self-association into the homodimer; also called WT; WT enzyme
B2: SULT2A1 Ala261Thr allozyme (enzyme)
chain: B1 chain with A261T
notes: Recombinant variant made by site directed mutagenesis and expressed in COS-1 cells from pCR3.1; It was used as an unpurified cytosol preparation; also called codon Thr261 variant allozyme

Target: the molecule itself
Test: gel filtration chromatography through Sephadex G-100 (self-association / homodimerization)
Protocol: Gel Filtration Chromatography: Gel filtration chromatography of recombinant human SULT2A1 was performed at 4° C. with a 2×25 cm column of Sephadex G-100 superfine. The mobile phase was 5 mM K phosphate buffer, pH 7.5, and 3 ml fractions were collected at a flow rate of approximately 1.8 mL per h. The fractions were assayed for SULT2A1 activity. Standards for column calibration were eluted separately and included Dextran Blue 2000, bovine serum albumin (67 kDa), ovalbumin (45 kDa), chymotrypsinogen A ([…]) and ribonuclease A (13.7 kDa).
The Ala261 Thr polymorphism is located within the dimerization motif at the C-terminus of the conserved 'Region IV' SULT signature sequence, and may alter the formation of the SULT2A1 homodimer. To test that hypothesis, recombinant WT and codon Thr261 variant allozyme preparations were subjected to gel filtration chromatography through Sephadex G-100.

Protein	binding result
B1	binds
B2	no binding
